Among the data in patent publication US20240218054A1 (MABLOC, published 2024) are Kd values, retold here.

Where a chain is given by its changes, count along the chain named.

The Kd is a measure of binding affinity in units of concentration.

The target of the assay is T1, recombinant YFV E protein (soluble E, sE; YFV Asibi strain) (Yellow fever virus, Asibi strain, UniProt Q6DV88 286-678).
T1 construct: also called YFV E antigen; YFV E monomer
As to the kind of experiment: BLI monovalent (IgG on tip).

T1 sequence (Q6DV88 286-678): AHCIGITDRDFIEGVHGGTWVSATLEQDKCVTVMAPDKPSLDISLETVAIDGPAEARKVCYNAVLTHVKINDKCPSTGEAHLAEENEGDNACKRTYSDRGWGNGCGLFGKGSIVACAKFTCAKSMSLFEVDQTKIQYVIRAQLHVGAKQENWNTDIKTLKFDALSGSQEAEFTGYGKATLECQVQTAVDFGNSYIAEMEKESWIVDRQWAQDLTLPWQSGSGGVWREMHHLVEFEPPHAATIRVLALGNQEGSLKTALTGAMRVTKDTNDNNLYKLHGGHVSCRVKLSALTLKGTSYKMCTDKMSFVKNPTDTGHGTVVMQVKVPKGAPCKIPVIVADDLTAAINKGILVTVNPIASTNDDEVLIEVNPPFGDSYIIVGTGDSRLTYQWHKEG

B1: ADI-49138 (antibody, V domains shown)
VH: QVQLVESGGGVVQPGRSLRLSCAASGFTFSNSGMHWVRQAPGKGLEWVSVIWYDESNKYYADSVKGRFTISRDNSKNTVYLQMNTLRAEDTAVYYCARDAYASGDGGIDYWGQGALVTVSS
VL: QPVLTQSASVSGSPGQSITISCTGTSSDVGGYKYVSWYQQHPGKAPKLMIYEVSNRPSGVSIRFSGSKSGNTASLTISGLQAADEADYYCSSYRSSGTPYVFGTGTKVTVL
notes: full-length IgG; also called Antibody Number 44
Regarding B1, the Kd amounted to 17.5 nM.

B2: ADI-45154 (antibody, V domains shown)
VH: EVQLVESGGGVVQPGRSLRLSCAASGFTFSNYGMHWVRQAPGKGLEWVAVISYDGSNKYYADSVKGRFTISRDDSKNTLYLQVNSLRAEDTAVYYCAKDICSGDCGGGDYWGQGTLVTVSS
VL: QSVLIQPPSASGSPGQSVTISCTGTSSDVGGYNYVSWYQQHPGKAPKLMIYEVSKRPSGVPDRFSGSKSGNTASLTVSGLQAEDGADYYCSSYAGSNNWVVFGGGTKLTVL
notes: full-length IgG; also called Antibody Number 53
With B2, the Kd is above 100 nM.

B3: ADI-42188 (antibody, V domains shown)
VH: EVQLLESGPGLVKPSGTLSLTCAVSGGSISSGNWWSWVRQPPGKGLEWIGEIYHSGSANYNPSLKSRVTISVDKSKNQFSLKLTSVTAADTAVYYCARVVWEYSNAWCVDFWGQGTTVTVSS
VL: QSVLTQPPSVSAAPGQKVTISCSGSSSNIGNNYVSWYQQLPGTAPKLLIYDNNKRPSGIPDRFSGSKSGTSATLGITGLQTGDEADYYCETWDSSLGVVVFGGGTKLTVL
notes: full-length IgG; also called Antibody Number 32
For the molecule B3, the Kd stood at 37.1 nM.

B4: ADI-45097 (antibody, V domains shown)
VH: EVQLVESGGGVVQPGRSLRLSCAASGFTFNSHGMHWVRQAPGKGLEWVAVISYDGTKKYFADSVKGRFTISRDNSKNTLYLQMSSLRADDTAVYYCAKDSSTSWYQVVYHIDYWGQGTLVTVSS
VL: B3 VL with L4V, S35A, T43R, Y50H, N53K, K67A, G97N, V98A
notes: full-length IgG; also called Antibody Number 5
For the molecule B4, the Kd was 1.62 nM.

B5: ADI-50026 (antibody, V domains shown)
VH: EVQLLESGGGVVQPGRSLRLSCAASGFTFTTYAMHWVRQAPGKGLEWVAAVSYDGNNKYYADSVKGRFTISRDNSRNTLYLQMNSLRAEDTAVYFCARNTYYDRSGLIAYWGQGALVTVSS
VL: DIQVTQSPSSLSASVGDRVTITCQASQDISNYLNWYQHKPGRAPKLLIYDASNLERGVPSRFSGSGSGTDFTFTISSLQPEDIATYYCQQYDNLSRLTFGGGTKLEIK
notes: full-length IgG; also called Antibody Number 33
For the molecule B5, the Kd is above 100 nM.

B6: ADI-42809 (antibody, V domains shown)
VH: QVQLVESGPGLVKPSGTLSLTCAVSGDSISSTNWWSWVRQPPGKGLEYIGEIFHSGSTNYNPFLKSRVTISVDKSKNHFSLKLSSVTAADTAVYYCARGPLKSYWYFDLWGRGTLVTVSS
VL: QSVLTQPPSVSAAPGQKVTISCSGSSSNIGNNYVSWYQQLPGTAPKLLIYDNNKRPSGIPDRFSGSKSGTSATLGITGLQTGDEADYYCGTWDTSLSAGRVFGGGTKLTVL
notes: full-length IgG; also called Antibody Number 34
For the molecule B6, the Kd was determined as 3.78 nM.

B7: ADI-48955 (antibody, V domains shown)
VH: QVQLVQSGGGLVNPGGSLRLSCAASGFTFTDYYMSWIRQAPGKGLEWVSYISSSGNTRYYADSVKGRFTISRDNAKNSLSLQMNSLRPEDTAIYYCARDGSLVNAIDYWGQGTLVTVSS
VL: B6 VL with I29F, N32D, N53D, G99A, R100W, L108V
notes: full-length IgG; also called Antibody Number 40
On to B7, for which the Kd stood at 2.05 nM.

B8: ADI-42818 (antibody, V domains shown)
VH: EVQLVESGPGLVKPSGTLSLTCAVSGGSITGSNWWSWVRQPPGKGLEWIGEIYHTGSTSYNPSLKSRVTISVDNSKNHFSLRLTSVTAADTAVYYCARVRWSGSTSWDLDYWGQGTLVTVSS
VL: B6 VL with L4V, K67T, D86V, L96P, R100G, L108V
notes: full-length IgG; also called Antibody Number 41
Consider B8, for which the Kd was 2.41 nM.

B9: ADI-42830 (antibody, V domains shown)
VH: EVQLLESGPGLVRPSGTLSLTCAVSGASISSNHWWTWVRQPPGKGLEWIGEIYHSGSPTYNPSLKSRVTISVDKSKNQFSLKLNSVTAADTAVYYCASTLWGGPLSVASDYWGQGTLVTVSS
VL: B6 VL with N32Y, L40V, Q80H, D86E, T94S, L96P
notes: full-length IgG; also called Antibody Number 37
As for B9, the Kd worked out at 3.48 nM.

B10: ADI-46586 (antibody, V domains shown)
VH: B7 VH with Q1E, Q6E, N13K, S52T, R58K, S80F, P88A, I93V, Y95F, L102M
VL: B6 VL with S2P, N32D, A85G, T94S, G99A, R100W, L108V
notes: full-length IgG; also called Antibody Number 43
B10: the Kd was determined as 2.16 nM.

B11: ADI-42151 (antibody, V domains shown)
VH: B6 VH with V5Q, D27G, T32S, Y48W, F53Y, N59T, F63S, H78Q, S103T
VL: B6 VL with L4V
notes: full-length IgG; also called Antibody Number 51
For the molecule B11, the Kd is 297 nM.

B12: ADI-42831 (antibody, V domains shown)
VH: EVQLVESGGGLVQPGGSLRLSCAASGFTFINYAMTWVRQAPGKGLEWVSAISGNGDGTYYADSVKGRFTLSRDNAKNTIYLHMSALRDEDTALYYCAKDQGVTTDWPSDYWGQGTLVTVSS
VL: DIRLTQSPSTLSASVGDRVTVTCRASQNINTYLAWYQQIPGKAPRLLIYRASTLESGVPSRFSGSGSGTEFTLTINSLQPDDYATYYCQHYETYSVRFGQGTKVEIK
notes: full-length IgG; also called Antibody Number 46
For the molecule B12, the equilibrium dissociation constant (Kd) was found to be 19.6 nM.

B13: ADI-42821 (antibody, V domains shown)
VH: EVQLLESGGGLVPPGGSLRLSCAASGFTFSNYAMSWVRQAPGKGLEWVSAISGSGDSTYYADSVKGRFTLSRDTSKKMVYLHMSNLRDDDTAVYYCARDQGFTTDWPCDYWGQGTLVTVSS
VL: B12 VL with R3V, T53S, N76S, Y83F, E92N, T93S, Y94F, R97K
notes: full-length IgG; also called Antibody Number 49
With B13, the Kd stood at 12.1 nM.

B14: ADI-50531 (antibody, V domains shown)
VH: EVTLKESGPTLVKPTQTLTLTCTFSGFSLSTSGVGVGWIRQPPGKALEWLALIYWDDDKRYSPSLKSRLTITKDTSKNQVVLTMTNMDPVDTATYYCAHSPRRITMVRGVIITWGDGMDVWGQGTTVTVSS
VL: QPVLTQPASVSGSPGQSITISCTGTSSDVGGYNYVSWYQQHPGKAPKLMIYDVSNRPSGVSNRFSGSKSGNTASLTISGLQAEDEADYYCSSYTSSSTLAVFGGGTKLTVL
notes: full-length IgG; also called Antibody Number 42
Take B14: the Kd was above 100 nM.

B15: ADI-46001 (antibody, V domains shown)
VH: EVQLVESGGGLVKPGGSLRLSCAASGFTFSDYYMSWIRQAPGKGLEWVSYISSSGNTIYYADSVKGRFTISRDNAKNSLYLQLNSLRAGDTAVYYCARDSNYFYGLDVWGQGTTVTVSS
VL: QPVLTQPPSVSVAPGQTARITCGGNNIGSKSVHWYQQKPGQAPMLVIYSNSDRPSGIPERFSGSNSGITATLTISRVEAGDEADYHCQVWDTSIDHHWVFGGGTKLTVL
notes: full-length IgG; also called Antibody Number 52
Consider B15, for which the Kd worked out at 6.17 nM.

B16: ADI-49186 (antibody, V domains shown)
VH: QVQLVESGGGVVQPGRSLRLSCAASGFTFSNSGMHWVRQAPGQGLEWVALISYTGETKYYSDSLKARFTISRDNSKNTLYLQMSSLSNEDTAVYYCARDYYASGDGYFDYWGQGTLVTVSS
VL: DIVLTQSPDSLAVSLGERATINCKSSQSVLFGSNQKSCLAWYQQKPGQSPKLLIHWASTRESGVPDRFSGSGSGTDFTLTISSLQAEDVAVYYCQQYYSTPRTFGQGTKVEIK
notes: full-length IgG; also called Antibody Number 38
For B16, the Kd was 12.3 nM.

B17: ADI-42847 (antibody, V domains shown)
VH: EVQLLESGPRLVKPSETLSLTCTVSGGSVRGGSHYWSWIRQPPGKGLEWIGYVYDSGSTNYNPSLKSRVSISVDMSKKQFSLKLRSVTAADTAVYHCVRVEEYVNNEEVRDYWGQGTMVTVSS
VL: DIVMTQTPATLSLSPGERATLSCRASQSVSSYLAWYQQKPGQAPRLLIYGASNRATGIPARFSGSGSGTDFTLTISSLEPEDFAVYYCLQRTNWPFTFGPGTKVEIK
notes: full-length IgG; also called Antibody Number 48
In the case of B17, the Kd turned out to be 3.21 nM.

B18: ADI-42230 (antibody, V domains shown)
VH: QVQLVESGGGVVQPGRSLRLSCAASGFTFSSYAMHWVRQAPGKGLEWVAVISHDGSNKYYADSVKGRFTISRDNSKNTLYLQINSLRAEDTAVYYCPRDGLPGANQYFFYYGMDVWGQGTTVTVSS
VL: DIQVTQSPSSLSASVGDRVTITCRASQGISNYLAWYQQKPGKVPKLLIFAASTLRSGVPSRFRGSGSGTDFTLTISSLQPEDVATYYCQKYNSAPLTFGGGTKVEIK
notes: full-length IgG; also called Antibody Number 47
With B18, the equilibrium dissociation constant (Kd) was found to be 1.99 nM.

B19: ADI-42849 (antibody, V domains shown)
VH: QVQLVESGGGLVKPGGSLRLSCAASGFTFSDYYMSWIRQAPGKGLEWVSYITSSGNTMYYADSVKGRFTISRDNAKNSLYLQMNSLRAEDTAVYYCARDSNFNSNLDYWGQGTLVTVSS
VL: SYELTQPPSVSVAPGQTARITCGGHNVGSKSVHWYQQKPGQAPVLVVYDDSDRPSGIPERFSGSNSGNTATLTISRVEAGDEADYYCQVWDSSSDHPWVFGGGTKVTVL
notes: full-length IgG; also called Antibody Number 50
For B19, the equilibrium dissociation constant (Kd) worked out at 1.98 nM.

B20: ADI-50205 (antibody, V domains shown)
VH: QVQLQESGGGVVQPGRSLRLSCAASGFTFSNFGMHWVRQAPGKGLEWVAIISYDRSNKDYADSVKGRFTISRDNSKNTLYLQMNSLRAEDTAVYYCAKDQCGGDCTADYWGQGTLVTVSS
VL: QSVLIQPASVSGSPGQSITISCTGTSSDVGGDKYVSWYQQHPGKAPKLVIYEVSNRPSGVSNRFSGSKSGNTASLTISGLQAEDEADYYCSSYTSSGTPVVCGGGTKVTVL
notes: full-length IgG; also called Antibody Number 36
In the case of B20, the Kd was found to be 18.8 nM.

B21: ADI-46596 (antibody, V domains shown)
VH: QVQLQESGPGLVKPSGTLSLTCAVSGGSISSNNWWSWVRQPPGKGLEWIGDTYHSGSPSYNPSLKSRVTISVDKSKNEFSLKLSSVTAADTAVYFCARYCSGATCYGSNGMDVWGQGTTVTVSS
VL: QSVLTQPPSMSAAPGQKVTISCSGSSSNIGNNYVSWYRQLPGTAPKLLIYDNDKRPSGIPDRFSGSKSGTTATLGITGLQTGDEAVYYCGTWDFRLSALFGGGTKLTVL
notes: full-length IgG; also called Antibody Number 35
For the molecule B21, the Kd stood at 5.11 nM.

B22: ADI-46591 (antibody, V domains shown)
VH: QVQLQQWGPELVKPSGTLSLTCTVSGGSISSISWWSWVRQSPGKGLEWIGEINHSGSTVYNPSLKSRVTISVDKSKKQFSLKLRSVTAADTAVYYCVRYCSSTSCYGLNGMDVWGQGTTVTVSS
VL: B21 VL with M10V, N31S, Y33F, R38Q, D53N, T71S, G75A, V86D, F94T, L106V
notes: full-length IgG; also called Antibody Number 39
For B22, the dissociation constant (Kd) came out at 9.6 nM.
